Experimental findings from PMC11850899 (Communications Biology, 2025) are described below.

Series [1] concerns the molecule itself. The series can be described thus: cryo-EM structure.
Series [2] deals with the molecule itself. In words: cryo-EM structure. The source holds these as a separate data set.

Numbering of substitutions follows the chain as printed. Numbers in names are those of the source. Where two headings read alike, the source gives them in different places.

B1: Bacillus subtilis DSR2 (defense-associated sirtuin 2), wild type (enzyme)
chain: MVKVDLESKRYGEKLKEVFLMLDNNVVECIKEITESSRNGKLVFFVGAGVSTLSDYPQWWRLVDKYHEELYGSPKKGNYSSDEYLRIPQIFYNVKGEMAFDGILKDFFQVDKPTNPIHDKILAMNPAHVITTNYDNLIDTACWKRGKYFSVISAEEDVANATSSRYLLKVHGDFRKGFKGENVVLKEDDYLNYDQNYPLISNLMKTIIATHTIVFIGYGLGDYNINMLLNWVRKLQKDSFHKPFFIRTDPSPIENETLIYYENKGLRIIDAASLIDSNEYDYLERYSAVMDLLIESQENKFITKDDEVIDYIYGKISPLFALQYIRKIDLKHVFEYDYHFEVNGTVVRHKNKGFGYMERFFELKESCDERSKLSKKQYERFNALFNFFEKNGVICMAKDAGTLNTSIEINSLAYHGKYDVMKKFIEEQSVSIEDDYKKAFFLACLGRWEESYDLYSNIILNSIDESNGCVYYLSQINRYRIYQSITQAVTQFNGLGLLTFGRHYKPFTDEFLARIEREMTNFNIDDLFNGMPFEFQKKYKILEFLSDNQFLYDDTVKLFELTNKVRSEMSEGSYSFGMSSDIVVLLRLYDNLRFLYENCLWSVSFHEFHQYIRNSMSLLIEKAEYERTRDIDELGFSFFGKKSGFFMEYYDFVNISRHFKIDDIKNLERSCSIDKIRFGEQEKIEEYLVGIAEEITKQFSANGMNVVFYTQFISEAKAALYFAKYVKLSEEGLGKIVKALLFYFPERDLDIGKRYVWLERLTKCNELPKSIISIIDDFLVLQAEKHIDQNYSEVSSNGLYSRDYGALIKHFEKNFISKRLSEITLCLTQDKQKQIDFLFKLLPLLSTNAKSHLLSFKSVENINDLMNGIRIGLIDEFTPEHEELIIEYLETRKVNYIVEKEKGIQTFSSNDYMSTFGIWYFLEEINNSKMEEFIGMDDQYDFFVDPENFDYKKFIPSWLKNYNDKLLGKIAGNKHMKHHVIEVLKERVKNSNDKRYLEILMNYFI
For the protein B1, the “stoichiometry N” value in “cryo-EM structure [1]” is 4.

B2: Bacillus subtilis DSR2 H171A (catalytic mutant) (enzyme, UniProt P0DXN8 1-1005, looked up)
chain: B1 chain with H171A
Take B2: in “cryo-EM structure [2]”, the “stoichiometry N” value was determined as 4.

The stoichiometry N is a count of units in the complex or per binding partner.
